Reference: PMC11214832

Biological target: SARS-CoV-2 Nsp15 catalytically inactive mutant H234A (SARS-CoV-2)
Assay: cryo-EM structure

Substance: SARS-CoV-2 Nsp15 catalytically inactive mutant H234A (enzyme)
- stoichiometry N: 6
